From patent US20260234247A1 (published 2026)
Positions count from the first letter of the chain named. One block for each binder: values may come before it.

What was measured:
[1] = molecular target: T1, human LILRA2 on CHOK1-human LILRA2 cell line (human, UniProt Q8N149 24-483); experiment: flow cytometry on CHOK1-human LILRA2 cell line (FIG. 2A)
T1 construct: whole, on cells

[2] = molecular target: T2, human LILRB1 protein (Octet analyte) (human, UniProt Q8NHL6 24-458, limits assumed); experiment: Octet (BLI), off rate ranking, kdis
T2 construct: The construct used in the Octet assay is not described; also called hLILRB1

[3] = molecular target: T3, human LILRB2 protein (Octet analyte) (human, UniProt Q8N423 22-460, limits assumed); experiment: Octet (BLI), off rate ranking, kdis
T3 construct: The construct used in the Octet assay is not described; also called hLILRB2

[4] = molecular target: T4, human LILRB2 expressed on CHOK1 cells (human, UniProt Q8N423 22-597); experiment: flow cytometry (FACS) binding to CHOK1-hLILRB2 cells
T4 construct: whole, on cells; also called CHOK1-hLILRB2; CHOK1-LILRB2

[5] = molecular target: T4, human LILRB2 expressed on CHOK1 cells; experiment: cell based RBA on CHOK1-hLILRB2 cells, flow cytometry; competitor HLA-G
[6] = molecular target: T5, human LILRB1 expressed on CHOK1 cells (human, UniProt Q8NHL6 24-650); experiment: cell based RBA on CHOK1-hLILRB1 cells, flow cytometry; competitor HLA-G
T5 construct: whole, on cells; also called CHOK1-hLILRB1; CHOK1-LILRB1

[7] = molecular target: T5, human LILRB1 expressed on CHOK1 cells; experiment: flow cytometry (FACS) binding to CHOK1-hLILRB1 cells
human LILRB3 = molecular target: T6, human LILRB3 (human, UniProt O75022 24-443); experiment: ELISA, OD450, antibody at 200 nM; + = 2-fold over ISO
T6 construct: bought protein coated for ELISA; also called hLILRB3

human LILRA2 [8] = molecular target: T7, human LILRA2 (human, UniProt Q8N149 24-449); experiment: as above
T7 construct: bought protein coated for ELISA; also called hLILRA2
T7 sequence (Q8N149 24-449 limits assumed): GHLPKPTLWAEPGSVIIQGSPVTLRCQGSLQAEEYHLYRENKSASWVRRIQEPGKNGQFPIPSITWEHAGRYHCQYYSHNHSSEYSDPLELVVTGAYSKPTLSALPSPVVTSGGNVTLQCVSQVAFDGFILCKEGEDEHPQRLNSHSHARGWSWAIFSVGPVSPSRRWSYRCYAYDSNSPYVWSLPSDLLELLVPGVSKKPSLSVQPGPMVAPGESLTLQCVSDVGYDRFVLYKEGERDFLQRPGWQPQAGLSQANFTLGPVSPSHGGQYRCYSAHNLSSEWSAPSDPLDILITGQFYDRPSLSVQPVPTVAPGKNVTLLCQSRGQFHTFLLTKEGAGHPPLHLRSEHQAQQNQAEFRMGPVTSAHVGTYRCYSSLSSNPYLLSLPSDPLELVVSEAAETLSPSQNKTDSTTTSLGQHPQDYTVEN

human LILRA5 = molecular target: T8, human LILRA5 (human, UniProt A6NI73 42-268, limits assumed); experiment: ELISA, antibody at 200 nM, OD450; + = 2-fold over ISO
T8 construct: Bought protein; also called hLILRA5

human LILRA1 = molecular target: T9, human LILRA1 (human, UniProt O75019 17-461, limits assumed); experiment: as above
T9 construct: Bought protein; also called hLILRA1

human LILRA3 = molecular target: T10, human LILRA3 (human, UniProt Q8N6C8 24-439); experiment: as above
T10 construct: Bought protein; also called hLILRA3

human LILRB4 [9] = molecular target: T11, human LILRB4 (human, UniProt Q8NHJ6 22-259); experiment: as above
T11 construct: Bought protein; also called hLILRB4

human LILRA4 [10] = molecular target: T12, human LILRA4 (human, UniProt P59901 24-446); experiment: as above
T12 construct: Bought protein; also called hLILRA4
T12 sequence (P59901 24-446 limits assumed): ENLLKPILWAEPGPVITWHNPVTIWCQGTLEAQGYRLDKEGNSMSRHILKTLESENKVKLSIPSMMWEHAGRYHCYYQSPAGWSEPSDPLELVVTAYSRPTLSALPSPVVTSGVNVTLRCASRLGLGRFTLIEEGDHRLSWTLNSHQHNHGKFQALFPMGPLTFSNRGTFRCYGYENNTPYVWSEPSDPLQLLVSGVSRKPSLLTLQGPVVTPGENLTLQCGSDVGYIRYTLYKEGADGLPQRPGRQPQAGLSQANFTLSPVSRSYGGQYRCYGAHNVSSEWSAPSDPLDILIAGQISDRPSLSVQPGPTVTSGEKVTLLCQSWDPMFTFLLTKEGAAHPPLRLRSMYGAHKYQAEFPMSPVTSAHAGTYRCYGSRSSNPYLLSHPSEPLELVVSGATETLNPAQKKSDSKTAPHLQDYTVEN

human LILRB5 = molecular target: T13, human LILRB5 (human, UniProt O75023 24-458); experiment: as above
T13 construct: Bought protein; also called hLILRB5

human LILRA2 [11] = molecular target: T14, human LILRA2 (human, UniProt Q8N149 24-449); experiment: as above
T14 construct: Bought protein; also called hLILRA2
T14 sequence (Q8N149 24-449 limits assumed): as the sequence (Q8N149 24-449 limits assumed) above

human LILRB4 [12] = molecular target: T15, human LILRB4 (human, UniProt Q8NHJ6 22-259); experiment: ELISA, OD450, antibody at 200 nM; + = 2-fold over ISO
T15 construct: bought protein coated for ELISA; also called hLILRB4

human LILRA4 [13] = molecular target: T16, human LILRA4 (human, UniProt P59901 24-446); experiment: as above
T16 construct: bought protein coated for ELISA; also called hLILRA4
T16 sequence (P59901 24-446 limits assumed): as the sequence (P59901 24-446 limits assumed) above

T4 sequence (Q8N423 22-597): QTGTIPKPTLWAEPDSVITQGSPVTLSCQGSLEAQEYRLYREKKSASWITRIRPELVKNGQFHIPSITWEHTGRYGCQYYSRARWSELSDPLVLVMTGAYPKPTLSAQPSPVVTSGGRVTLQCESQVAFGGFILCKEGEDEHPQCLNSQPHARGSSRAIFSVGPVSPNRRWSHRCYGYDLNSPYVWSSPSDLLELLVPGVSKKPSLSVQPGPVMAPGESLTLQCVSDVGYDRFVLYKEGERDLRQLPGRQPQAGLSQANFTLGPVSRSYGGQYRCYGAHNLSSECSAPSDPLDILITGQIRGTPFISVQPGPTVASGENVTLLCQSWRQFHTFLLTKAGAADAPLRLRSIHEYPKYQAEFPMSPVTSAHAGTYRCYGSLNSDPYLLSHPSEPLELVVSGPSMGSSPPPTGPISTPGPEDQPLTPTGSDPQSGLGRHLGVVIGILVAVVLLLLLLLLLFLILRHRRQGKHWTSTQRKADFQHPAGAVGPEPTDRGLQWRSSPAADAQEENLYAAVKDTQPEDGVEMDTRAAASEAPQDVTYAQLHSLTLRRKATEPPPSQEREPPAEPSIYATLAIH
T5 sequence (Q8NHL6 24-650): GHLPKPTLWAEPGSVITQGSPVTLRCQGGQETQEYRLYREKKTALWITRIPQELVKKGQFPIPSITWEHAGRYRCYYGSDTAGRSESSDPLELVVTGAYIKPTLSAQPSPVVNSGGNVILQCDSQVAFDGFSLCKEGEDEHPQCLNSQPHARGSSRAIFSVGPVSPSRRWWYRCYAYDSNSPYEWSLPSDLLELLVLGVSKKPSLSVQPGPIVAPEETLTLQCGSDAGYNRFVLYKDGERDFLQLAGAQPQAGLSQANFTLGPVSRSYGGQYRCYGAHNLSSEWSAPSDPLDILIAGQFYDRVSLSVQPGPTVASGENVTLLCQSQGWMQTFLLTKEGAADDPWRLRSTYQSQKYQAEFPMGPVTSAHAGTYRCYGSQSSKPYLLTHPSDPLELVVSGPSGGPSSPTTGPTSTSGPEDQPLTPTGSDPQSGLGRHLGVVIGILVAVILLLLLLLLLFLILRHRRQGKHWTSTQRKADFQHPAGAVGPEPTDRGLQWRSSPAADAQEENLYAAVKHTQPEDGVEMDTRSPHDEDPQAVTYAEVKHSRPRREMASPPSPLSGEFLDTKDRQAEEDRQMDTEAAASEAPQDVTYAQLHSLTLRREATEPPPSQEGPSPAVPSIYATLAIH
T2 sequence (Q8NHL6 24-458 limits assumed): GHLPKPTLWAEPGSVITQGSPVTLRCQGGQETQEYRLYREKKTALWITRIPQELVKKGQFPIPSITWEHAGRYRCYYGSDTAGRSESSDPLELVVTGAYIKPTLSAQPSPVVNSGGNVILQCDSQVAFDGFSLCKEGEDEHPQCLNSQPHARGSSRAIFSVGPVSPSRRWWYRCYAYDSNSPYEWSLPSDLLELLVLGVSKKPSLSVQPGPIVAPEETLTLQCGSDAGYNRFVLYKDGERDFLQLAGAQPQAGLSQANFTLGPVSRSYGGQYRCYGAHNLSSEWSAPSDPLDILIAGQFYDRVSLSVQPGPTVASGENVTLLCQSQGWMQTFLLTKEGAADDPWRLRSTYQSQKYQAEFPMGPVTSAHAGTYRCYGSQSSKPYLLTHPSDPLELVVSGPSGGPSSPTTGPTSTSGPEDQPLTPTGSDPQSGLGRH
T3 sequence (Q8N423 22-460 limits assumed): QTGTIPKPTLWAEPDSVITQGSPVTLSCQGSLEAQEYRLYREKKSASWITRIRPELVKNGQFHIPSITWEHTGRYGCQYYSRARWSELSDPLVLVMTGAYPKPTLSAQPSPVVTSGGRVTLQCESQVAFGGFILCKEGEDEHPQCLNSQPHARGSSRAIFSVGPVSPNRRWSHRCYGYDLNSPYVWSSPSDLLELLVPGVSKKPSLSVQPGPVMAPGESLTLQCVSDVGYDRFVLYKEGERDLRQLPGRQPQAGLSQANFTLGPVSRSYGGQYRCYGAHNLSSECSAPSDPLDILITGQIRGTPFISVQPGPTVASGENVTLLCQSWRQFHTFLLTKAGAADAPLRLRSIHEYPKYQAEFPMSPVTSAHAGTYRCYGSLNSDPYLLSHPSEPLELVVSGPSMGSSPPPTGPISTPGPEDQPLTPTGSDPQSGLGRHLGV
T10 sequence (Q8N6C8 24-439 limits assumed): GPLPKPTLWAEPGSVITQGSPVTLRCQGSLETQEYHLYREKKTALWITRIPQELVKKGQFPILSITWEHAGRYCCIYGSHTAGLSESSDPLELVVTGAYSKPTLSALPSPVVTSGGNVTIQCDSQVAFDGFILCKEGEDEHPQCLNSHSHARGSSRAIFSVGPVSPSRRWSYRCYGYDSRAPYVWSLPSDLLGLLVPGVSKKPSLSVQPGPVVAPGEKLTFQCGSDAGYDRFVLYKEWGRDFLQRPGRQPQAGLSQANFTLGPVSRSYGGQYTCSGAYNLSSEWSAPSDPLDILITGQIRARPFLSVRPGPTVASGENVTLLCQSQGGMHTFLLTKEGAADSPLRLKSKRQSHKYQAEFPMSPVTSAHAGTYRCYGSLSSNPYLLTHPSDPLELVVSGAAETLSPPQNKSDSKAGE
T8 sequence (A6NI73 42-268 limits assumed): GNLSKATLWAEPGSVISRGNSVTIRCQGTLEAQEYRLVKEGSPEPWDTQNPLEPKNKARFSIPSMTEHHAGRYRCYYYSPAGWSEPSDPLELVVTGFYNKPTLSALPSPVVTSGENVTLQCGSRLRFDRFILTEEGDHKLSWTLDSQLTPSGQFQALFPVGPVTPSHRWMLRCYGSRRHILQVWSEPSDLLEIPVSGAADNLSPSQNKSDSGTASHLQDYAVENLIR

B4: LK-RB2-8 (antibody, human IgG4 S228P, kappa, V domains shown)
VH: QIQLVQSGPELKKPGETVKISCKASGYSFASYGMGWVKQAPGKGLKWLGWINTHSGVPTYADDFKGRFAFSLETSASTAYLQINNLKNEDTATYFCAHYGRPWFPYWGQGTLVTVSA
VL: DIQMTQSPASLSASVGETVTITCRTSENIYSYLAWYQQKQGKSPQLLVYNAKSLAEGVPSRFSGSGSGTQFSLRINSLQPEDFGTYYCQQHYETPLTFGAGTKLELKR
- binding result (human LILRA5): binds
- binding result (human LILRA1): binds
- binding result (human LILRA3): binds
- binding result (human LILRB4 [9]): binds

B5: LK-RB2-16 (antibody, human IgG4 S228P, kappa, V domains shown)
VH: B4 VH with S28T, A30T, S31T, G42E, L48M, H54N, V57A, A61G, P105A
VL: B4 VL with T25A, Q37H, K42E, S53T, R74K, T85S, Q90H, E93N, T94I
- binding result (human LILRA4 [10]): binds
- binding result (human LILRB5): binds

B6: LK-RB2-10 (antibody, human IgG4 S228P, kappa, V domains shown)
VH: EVMLVESGGDLVKPGGSLKLSCAASGFTFSANTVSWLRRTPERRLEWVATISGGSDNTYCPDSVKGRFTISRDNARDTLYLQMSSLTSEDTALYFCARHYYDGPNWYFDVWGPGTTVTVSS
VL: DIVMTQSQKFMSSTGGDRVTITCKASQNVDTAVAWYQQKPGQSPKLLIYSASNRYIGVPDRFKGSGSGTDFSLTITNIQSEDLAEYFCQQYSSYPLTFGAGTKLELKR
- binding result (human LILRA2 [11]): binds

B7: LK-RBi-08 (bispecific antibody, human IgG4 S228P, kappa)
heavy: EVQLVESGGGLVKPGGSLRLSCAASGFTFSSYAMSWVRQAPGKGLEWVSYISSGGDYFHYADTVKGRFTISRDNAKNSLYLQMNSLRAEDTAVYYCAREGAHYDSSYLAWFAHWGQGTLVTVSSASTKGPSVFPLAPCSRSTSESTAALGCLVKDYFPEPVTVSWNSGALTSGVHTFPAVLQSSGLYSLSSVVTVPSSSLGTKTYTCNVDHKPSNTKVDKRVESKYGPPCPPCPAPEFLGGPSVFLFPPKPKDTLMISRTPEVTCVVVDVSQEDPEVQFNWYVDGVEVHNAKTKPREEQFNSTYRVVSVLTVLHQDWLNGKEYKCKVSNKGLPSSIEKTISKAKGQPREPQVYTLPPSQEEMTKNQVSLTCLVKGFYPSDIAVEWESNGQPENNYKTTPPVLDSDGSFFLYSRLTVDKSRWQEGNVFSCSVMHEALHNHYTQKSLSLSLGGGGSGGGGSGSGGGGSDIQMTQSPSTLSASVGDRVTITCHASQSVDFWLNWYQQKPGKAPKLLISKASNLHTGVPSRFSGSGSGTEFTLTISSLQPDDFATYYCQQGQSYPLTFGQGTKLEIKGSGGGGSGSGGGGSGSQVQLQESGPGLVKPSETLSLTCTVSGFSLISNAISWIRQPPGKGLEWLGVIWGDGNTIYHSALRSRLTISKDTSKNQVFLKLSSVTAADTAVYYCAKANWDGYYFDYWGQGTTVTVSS
light: DIQMTQSPSSVSASVGDRVTITCRASENIYSNLAWYQQKPGKAPKLLIYAATNLAEGVPSRFSGSGSGTDYTLTISSLQPEDFATYYCQQFWDNPLTFGQGTKLEIKRTVAAPSVFIFPPSDEQLKSGTASVVCLLNNFYPREAKVQWKVDNALQSGNSQESVTEQDSKDSTYSLSSTLTLSKADYEKHKVYACEVTHQGLSSPVTKSFNRGEC
- koff [2]: 0.000166 s⁻¹
- koff [3]: 5.68e-05 s⁻¹
- EC50 [4]: 0.37 nM
- EC50 [5]: 0.28 µg/mL
- EC50 [6]: 6.03 µg/mL
- EC50 [7]: 2.66 nM

B8: LK-RB1-1 (antibody, human IgG4 S228P, kappa, V domains shown)
VH: QIQLVQSGPELKKPGETVKISCKASGYSFTNFGMSWVKQAPGKALKWMGWINTYSGVPTYADDFKGRFAFSLETSANTAYLQINNLKNEDSATYFCARRRRTFDGYLCFDYWGQGATLTVSS
VL: QLVLTQSSSASFSLGASAKLTCTLSSQHSTYSIDWYQQQPLKPPKYVMELKTDGSHRTGDGIPDRFSGSSSGADRYLSISNIQPEDEAIYICGVGDTIKEQFVYVFGGGTKVTVLR
notes: anti-LILRB1 antibody
- binding result (human LILRB4 [12]): binds
- binding result (human LILRA4 [13]): binds

The next lines start with the values.

- binding result [1]: no binding
B1: hz73D1.v1 (antibody, human IgG4 S228P, kappa, V domains shown)
VH: QVQLVQSGAEVKKPGASVKVSCKASGYTFTDYYINWVRQAPGQGLEWMGNVNPNDGGTTYNQKFKGRVTMTTDTSTSTAYMELRSLRSDDTAVYYCARREIYFYGTIYYYAMDYWGQGTLVTVSS
VL: DIQLTQSPSFLSASVGDRVTITCRASESVDYYGNSFMYWYQQKPGKAPKLLIYFASNLESGVPSRFSGSGSGTEFTLTISSLQPEDFATYYCQQNNEDPWTFGGGTKVEIKR

- koff [2]: 0.00021 s⁻¹
- koff [3]: 8.24e-06 s⁻¹
- EC50 [4]: 0.73 nM
- EC50 [5]: 0.43 µg/mL
- EC50 [6]: 4.2 µg/mL
- EC50 [7]: 2.32 nM
B2: LK-RBi-05 (bispecific antibody, human IgG4 S228P, kappa)
heavy: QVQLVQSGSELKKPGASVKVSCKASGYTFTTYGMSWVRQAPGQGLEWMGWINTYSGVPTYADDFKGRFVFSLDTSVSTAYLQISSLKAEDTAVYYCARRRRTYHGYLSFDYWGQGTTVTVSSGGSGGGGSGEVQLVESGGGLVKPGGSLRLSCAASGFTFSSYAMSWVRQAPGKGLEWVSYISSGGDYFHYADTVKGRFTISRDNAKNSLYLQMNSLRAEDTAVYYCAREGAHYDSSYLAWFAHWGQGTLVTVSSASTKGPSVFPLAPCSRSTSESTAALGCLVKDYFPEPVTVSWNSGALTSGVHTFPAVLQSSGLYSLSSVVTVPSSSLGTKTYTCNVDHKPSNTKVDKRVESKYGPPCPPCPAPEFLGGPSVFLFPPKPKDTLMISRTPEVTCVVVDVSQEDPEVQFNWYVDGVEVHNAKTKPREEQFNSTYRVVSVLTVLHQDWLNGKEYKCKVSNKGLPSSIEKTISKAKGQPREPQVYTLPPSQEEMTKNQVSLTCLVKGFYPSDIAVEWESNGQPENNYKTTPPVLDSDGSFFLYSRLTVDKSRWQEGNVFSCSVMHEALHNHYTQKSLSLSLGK
light: DIQMTQSPSSLSASVGDRVTITCETSENIYGALNWYQQKPGKAPKLLIYGATNLAEGVPSRFSGSGSGTDFTFTISSLQPEDIATYYCQNVLNTPWTFGGGTKLEIKGGSGGGGSGDIQMTQSPSSVSASVGDRVTITCRASENIYSNLAWYQQKPGKAPKLLIYAATNLAEGVPSRFSGSGSGTDYTLTISSLQPEDFATYYCQQFWDNPLTFGQGTKLEIKRTVAAPSVFIFPPSDEQLKSGTASVVCLLNNFYPREAKVQWKVDNALQSGNSQESVTEQDSKDSTYSLSSTLTLSKADYEKHKVYACEVTHQGLSSPVTKSFNRGEC

- binding result (human LILRB3): binds
- binding result (human LILRA2 [8]): binds
B3: LK-RB1-5 (antibody, human IgG4 S228P, kappa, V domains shown)
VH: QVQLQQPGAELVKPGASVKLSCKASGYTFTDFWIHWVKQRPGQGLEWIGMIHPNSGSTNFNEKFRAKATLTVDKSSSTAYMRLSSLTSEDSAVYYCARSGDGYSNPMDYWGQGTSVTVSS
VL: QIVLSQSPAILSASPGEKVTLTCRASSSVSYMHWYQQKPGSSPKPWIYATSNLASGVPVRFSGSGSGTSYSLTISRMQTEDAATYYCQQWRRSPYTFGGGTKLEIKR
notes: anti-LILRB1 antibody
